# Data: US20170190753A1 (LABORATOIRE FRANCAIS DU FRACTIONNEMENT ET DES …, published 2017)
# Target: C3 convertase complex (UniProt P01024 23-1663; P00751 260-764)
# Assay: cell-based or functional assay
# Wherever C3 convertase activity % of the control is given: test concentration or dose not given here.
# C3 convertase complex, sequence (P01024 23-1663, chain 1 of 2): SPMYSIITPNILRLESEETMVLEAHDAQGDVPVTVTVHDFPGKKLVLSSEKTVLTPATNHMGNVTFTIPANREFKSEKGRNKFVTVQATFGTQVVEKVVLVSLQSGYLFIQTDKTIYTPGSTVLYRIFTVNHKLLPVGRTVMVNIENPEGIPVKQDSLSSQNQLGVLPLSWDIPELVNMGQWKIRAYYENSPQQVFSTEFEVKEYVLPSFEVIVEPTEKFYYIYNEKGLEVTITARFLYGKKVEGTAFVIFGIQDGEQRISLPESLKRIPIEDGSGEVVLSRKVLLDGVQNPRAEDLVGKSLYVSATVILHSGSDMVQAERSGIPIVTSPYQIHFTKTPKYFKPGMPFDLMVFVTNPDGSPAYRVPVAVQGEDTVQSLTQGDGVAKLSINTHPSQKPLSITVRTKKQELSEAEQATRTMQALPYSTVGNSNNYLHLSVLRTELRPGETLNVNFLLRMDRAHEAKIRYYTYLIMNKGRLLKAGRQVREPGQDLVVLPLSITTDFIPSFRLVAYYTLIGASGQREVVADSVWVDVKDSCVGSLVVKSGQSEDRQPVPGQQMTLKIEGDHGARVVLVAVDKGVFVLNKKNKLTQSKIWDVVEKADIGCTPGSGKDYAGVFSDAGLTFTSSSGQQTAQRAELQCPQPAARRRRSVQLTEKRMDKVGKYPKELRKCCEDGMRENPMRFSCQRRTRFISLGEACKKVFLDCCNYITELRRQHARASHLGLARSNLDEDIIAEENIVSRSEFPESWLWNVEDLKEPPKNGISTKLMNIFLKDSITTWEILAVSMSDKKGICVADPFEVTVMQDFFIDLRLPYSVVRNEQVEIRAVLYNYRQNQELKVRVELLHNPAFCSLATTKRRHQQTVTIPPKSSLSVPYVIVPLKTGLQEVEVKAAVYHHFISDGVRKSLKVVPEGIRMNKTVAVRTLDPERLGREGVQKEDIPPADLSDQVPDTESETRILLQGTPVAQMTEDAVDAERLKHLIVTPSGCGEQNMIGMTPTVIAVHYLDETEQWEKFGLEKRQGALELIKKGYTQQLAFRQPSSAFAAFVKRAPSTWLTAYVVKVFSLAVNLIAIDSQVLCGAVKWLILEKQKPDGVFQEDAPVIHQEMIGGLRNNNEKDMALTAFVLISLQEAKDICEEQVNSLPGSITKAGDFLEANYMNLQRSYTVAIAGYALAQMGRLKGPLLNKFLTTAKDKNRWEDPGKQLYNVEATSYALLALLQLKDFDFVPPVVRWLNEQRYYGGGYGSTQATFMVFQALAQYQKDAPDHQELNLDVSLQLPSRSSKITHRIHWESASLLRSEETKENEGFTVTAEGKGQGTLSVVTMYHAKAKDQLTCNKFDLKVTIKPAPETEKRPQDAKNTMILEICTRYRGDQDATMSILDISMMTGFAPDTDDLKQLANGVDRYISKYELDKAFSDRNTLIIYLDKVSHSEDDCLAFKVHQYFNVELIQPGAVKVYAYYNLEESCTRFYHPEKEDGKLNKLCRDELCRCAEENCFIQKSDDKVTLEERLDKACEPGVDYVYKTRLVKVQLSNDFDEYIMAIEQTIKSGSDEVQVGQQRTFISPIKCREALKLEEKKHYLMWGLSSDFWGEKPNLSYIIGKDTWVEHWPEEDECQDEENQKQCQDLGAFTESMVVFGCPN
# C3 convertase complex, sequence (P00751 260-764, chain 2 of 2): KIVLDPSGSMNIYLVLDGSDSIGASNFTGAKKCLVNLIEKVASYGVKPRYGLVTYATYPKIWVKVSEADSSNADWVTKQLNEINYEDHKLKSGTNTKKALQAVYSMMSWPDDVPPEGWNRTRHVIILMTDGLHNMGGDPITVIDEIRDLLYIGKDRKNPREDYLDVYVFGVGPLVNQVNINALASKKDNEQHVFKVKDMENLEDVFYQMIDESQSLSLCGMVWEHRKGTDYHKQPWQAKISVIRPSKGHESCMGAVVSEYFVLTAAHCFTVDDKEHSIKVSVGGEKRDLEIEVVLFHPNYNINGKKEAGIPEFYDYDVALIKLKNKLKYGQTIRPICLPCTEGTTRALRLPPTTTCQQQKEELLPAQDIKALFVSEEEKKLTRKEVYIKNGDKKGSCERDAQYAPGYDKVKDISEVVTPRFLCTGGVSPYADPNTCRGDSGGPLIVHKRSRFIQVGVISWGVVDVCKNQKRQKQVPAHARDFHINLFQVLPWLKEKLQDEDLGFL
C3 convertase activity % of the control,C3 convertase activity IC50,Binder
56 % of the control,0.166 µg/mL,pCEP4-1NT9-13CT20 (other) EDCNELPPRRNTEILTGSWSDQTYPEGTQAIYKCRPGYRSLGNVIMVCRKGEWVALNPLRKCQKRPCGHPGDTPFGTFTLTGGNVFEYGVKAVYTCNEGYQLLGEINYRECDTDGWTNDIPICEVVKCLPVTAPENGKIVSSAMEPDREYHFGQAVRFVCNSGYKIEGDEEMHCSDDGFWSKEKPKCVEISCKSPDVINGSPISQKIIYKENERFQYKCNMGYEYSERGDAVCTESGWRPLPSCEEKSCDNPYIPNGDYSPLRIKHRTGDEITYQCRNGFYPATRGNTAKCTSTGWIPAPRCTLKPCDYPDIKHGGLYHENMRRPYFPVAVGKYYSYYCDEHFETPSGSYWDHIHCTQDGWSPAVPCLRKCYFPYLENGYNQNYGRKFVQGKSIDVACHPGYALPKAQTTVTCMENGWSPTPRCIRVKTCSKSSIDIENGFISESQYTYALKEKAKYQCKLGYVTADGETSGSITCGKDGWSAQPTCIKSCDIPVFMNARTKNDFTWFKLNDTLDYECHDGYESNTGSTTGSIVCGYNGWSDLPICYEREGASGCKSSNLIILEEHLKNKKEFDHNSNIRYRCRGKEGWIHTVCINGRWDPEVNCSMAQIQLCPPPPQIPNSHNMTTTLNYRDGEKVSVLCQENYLIQEGEEITCKDGRWQSIPLCVEKIPCSQPPQIEHGTINSSRSSQESYAHGTKLSYTCEGGFRISEENETTCYMGKWSSPPQCEGLPCKSPPEISHGVVAHMSDSYQYGEEVTYKCFEGFGIDGPAIAKCLGEKWSHPPSCIKTDCLSLPSFENAIPMGEKKDVYKAGEQVTYTCATYYKMDGASNVTCINSRWTGRPTCRDTSCVNPPTVQNAYIVSRQMSKYPSGERVRYQCRSPYEMFGDEEVMCLNGNWTEPPQCKDSTGKCGPPPPIDNGDITSFPLSVYAPASSVEYQCQNLYQLEGNKRITCRNGQWSEPPKCLHPCVISREIMENYNIALRWTAKQKLYSRTGESVEFVCKRGYRLSSRSHTLRTTCWDGKLEYPTCAKRGGSGHHHHHH
56 % of the control,0.639 µg/mL,pCEP4-1NT7-15CT20 (other) EDCNELPPRRNTEILTGSWSDQTYPEGTQAIYKCRPGYRSLGNVIMVCRKGEWVALNPLRKCQKRPCGHPGDTPFGTFTLTGGNVFEYGVKAVYTCNEGYQLLGEINYRECDTDGWTNDIPICEVVKCLPVTAPENGKIVSSAMEPDREYHFGQAVRFVCNSGYKIEGDEEMHCSDDGFWSKEKPKCVEISCKSPDVINGSPISQKIIYKENERFQYKCNMGYEYSERGDAVCTESGWRPLPSCEEKSCDNPYIPNGDYSPLRIKHRTGDEITYQCRNGFYPATRGNTAKCTSTGWIPAPRCTLKPCDYPDIKHGGLYHENMRRPYFPVAVGKYYSYYCDEHFETPSGSYWDHIHCTQDGWSPAVPCLRKCYFPYLENGYNQNYGRKFVQGKSIDVACHPGYALPKAQTTVTCMENGWSPTPRCIRVKTGASGCSQPPQIEHGTINSSRSSQESYAHGTKLSYTCEGGFRISEENETTCYMGKWSSPPQCEGLPCKSPPEISHGVVAHMSDSYQYGEEVTYKCFEGFGIDGPAIAKCLGEKWSHPPSCIKTDCLSLPSFENAIPMGEKKDVYKAGEQVTYTCATYYKMDGASNVTCINSRWTGRPTCRDTSCVNPPTVQNAYIVSRQMSKYPSGERVRYQCRSPYEMFGDEEVMCLNGNWTEPPQCKDSTGKCGPPPPIDNGDITSFPLSVYAPASSVEYQCQNLYQLEGNKRITCRNGQWSEPPKCLHPCVISREIMENYNIALRWTAKQKLYSRTGESVEFVCKRGYRLSSRSHTLRTTCWDGKLEYPTCAKRGGSGHHHHHH
